Test [1] has as its target 16055 SOSIP trimer (HIV-1 subtype C, truncated at residue 663), negatively selected (HIV-1 subtype C strain 16055). In words: negative-stain EM; negatively selected SOSIP trimers incubated with a ten molar excess of Fab or four-domain sCD4 at RT for 1 hour; 2% uranyl formate; 2D class averages (occupancy) and 3D reconstructions.
For test [2], the target named is JRFL SOSIP trimer (HIV-1 subtype B, truncated at residue 663), negatively selected (HIV-1 subtype B strain JRFL). The test is described as above.
Test [3] shares this target.

Chain of PGT151 Fab (VH): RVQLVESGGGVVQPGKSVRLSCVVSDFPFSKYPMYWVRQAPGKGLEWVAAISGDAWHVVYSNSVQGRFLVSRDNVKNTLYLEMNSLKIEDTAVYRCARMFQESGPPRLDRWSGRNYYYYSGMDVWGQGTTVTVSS
Chain of PGT151 Fab (VL): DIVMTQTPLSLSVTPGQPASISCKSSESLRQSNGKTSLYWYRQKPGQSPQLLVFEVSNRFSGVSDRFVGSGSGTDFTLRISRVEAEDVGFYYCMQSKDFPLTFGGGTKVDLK

In test [1], PGT151 Fab yielded a percent of trimers with one Fab bound of 34%, a percent of trimers with three Fabs bound of 0% and a percent of trimers with two Fabs bound of 20%. In test [2], this substance had a percent of trimers with one Fab bound of 28%, a percent of trimers with three Fabs bound of 11% and a percent of trimers with two Fabs bound of 36%. The substance further gave an increase of the melting temperature (Tm) of the JRFL SOSIP-Fab complex over the trimer alone, DSF in test [3] of 2.1 °C.

The record behind these values is paper PMC4287557.
